Measurements from US20250295803A1, “5T4 ANTIBODY-DRUG CONJUGATES AND USES THEREOF” (EXELIXIS, INC., priority 2022, published 2025).
Where a chain is given by its changes, count along the chain named.

T1: unconjugated human TPBG/5T4 protein with a c-terminal polyhistidine and Avi tag (AcroBiosystems Cat. No. … (human, UniProt Q13641 32-355))
T1 construct: Bought protein; also called Acro TPGH52E5; Acro Catalog No. TPGH52E; not shown: C-terminal polyhistidine and Avi tag
T1 sequence: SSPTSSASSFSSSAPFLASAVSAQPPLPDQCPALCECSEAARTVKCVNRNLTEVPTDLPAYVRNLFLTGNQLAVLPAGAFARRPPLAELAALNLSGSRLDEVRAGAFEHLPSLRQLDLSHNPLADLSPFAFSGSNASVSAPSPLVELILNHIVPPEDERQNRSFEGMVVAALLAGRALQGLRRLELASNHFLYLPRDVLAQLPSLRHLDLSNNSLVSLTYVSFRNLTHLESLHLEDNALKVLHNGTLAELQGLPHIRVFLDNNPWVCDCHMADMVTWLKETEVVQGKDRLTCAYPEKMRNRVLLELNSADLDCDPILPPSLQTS

T2: human 5T4 produced internally (Lot 20-019-62) (human, UniProt Q13641 32-355)
T2 construct: 'also produced separately'; also called Internal (Lot 20-019-62)
T2 sequence: T1 sequence

T3: human 5T4 (Homo sapiens, UniProt Q13641)
T3 sequence (Q13641 32-355 limits assumed): T1 sequence

B1: mAbA17 (antibody, V domains shown)
VH: EVQLVESGGGLVQPGGSLRLSCAASGFTFSRYWIHWVRQAPGKGLEWVAAIFPYSGSTLYADSVKGRFTISADTSKNTAYLQMNSLRAEDTAVYYCARSPSRSILPSGLDYWGQGTLVTVSS
VL: DIQMTQSPSSLSASVGDRVTITCRASQSVSSAVAWYQQKPGKAPKLLIYSASSLYSGVPSRFSGSRSGTDFTLTISSLQPEDFATYYCQQGDGSPYTFGQGTKVEIKR
notes: also called Antibody mAbA17
B2: mAbA15 (antibody, V domains shown)
VH: EVQLVESGGGLVQPGGSLRLSCAASGFTFSSYYIHWVRQAPGKGLEWVAYITSTGSYTEYADSVKGRFTISADTSKNTAYLQMNSLRAEDTAVYYCARYDRSTRYSGLDYWGQGTLVTVSS
VL: B1 VL with G91A, D92Y, G93A, S94T, Y96V
notes: also called Antibody mAbA15
B3: mAbA17: 5T4 antibody comprising VH of SEQ ID NO:62 and VL of SEQ ID NO:63 (antibody, V domains shown)
VH: B1 VH
VL: DIQMTQSPSSLSASVGDRVTITCRASQSVSSAVAWYQQKPGKAPKLLIYSASSLYSGVPSRFSGSRSGTDFTLTISSLQPEDFATYYCQQGDGSPYTFGQGTKVEIK
modifications: Antibody mAbA17 VH Sequence; Antibody mAbA17 VL Sequence
B4: mAbA4 (antibody, V domains shown)
VH: EVQLVESGGGLVQPGGSLRLSCAASGFTFSRYYIHWVRQAPGKGLEWVAFISPGGSYTYYADSVKGRFTISADTSKNTAYLQMNSLRAEDTAVYYCAREYYSMGVLDYWGQGTLVTVSS
VL: B1 VL with G91A, D92Y, G93E
notes: also called Antibody mAbA4
B5: mAbA4: 5T4 antibody comprising VH of SEQ ID NO:25 and VL of SEQ ID NO:26 (antibody, V domains shown)
VH: B4 VH
VL: B3 VL with G91A, D92Y, G93E
modifications: Antibody mAbA4 VH Sequence; Antibody mAbA4 VL Sequence
B6: mAbA15: 5T4 antibody comprising VH of SEQ ID NO:44 and VL of SEQ ID NO:45 (antibody, V domains shown)
VH: B2 VH
VL: B3 VL with G91A, D92Y, G93A, S94T, Y96V
modifications: Antibody mAbA15 VH Sequence; Antibody mAbA15 VL Sequence

What was measured:
[1] = target: T1, unconjugated human TPBG/5T4 protein …; assay: ELISA on coated human 5T4 His-Avi (Acro TPG-H52E5); antibody condition: pH 5.5 Day 1
Method: (§1) A. Normal Binding Unconjugated antibodies were tested for their ability to bind to human 5T4 (hu5T4) using ELISA. On Day 1, unconjugated human TPBG/5T4 protein with a c-terminal polyhistidine and Avi (AVITAG™) tag (AcroBiosystems (Newark, DE, USA), Cat. No. TPG-H52E5) was diluted 2 μg/mL in PBS, mixed thoroughly, plated 100 μL per well in a 96-well plate (Nunc MAXISORP®) and incubated overnight at 4° C.

[2] = target: T1, unconjugated human TPBG/5T4 protein …; assay: ELISA on coated human 5T4 His-Avi (Acro TPG-H52E5); antibody condition: PBS time 24 hr.
Method: as §1
3. Oxidative Stress. Several unconjugated antibodies were tested for their ability to bind to 5T4 using ELISA in an oxidative environment. Solutions of 1 mg/mL to 10 mg/mL of antibody in 20 mM citrate/50 mM NaCl at a pH of 5.5 were prepared and stored at 37° C. for 1 to 2 weeks.

[3] = target: T1, unconjugated human TPBG/5T4 protein …; assay: ELISA on coated human 5T4 His-Avi (Acro TPG-H52E5); antibody condition: pH 5.5 Day 7
Method: as §1

[4] = target: T1, unconjugated human TPBG/5T4 protein …; assay: ELISA on coated human 5T4 His-Avi (Acro TPG-H52E5); antibody condition: pH 5.5 Day 4
Method: as §1

[5] = target: T2, human 5T4 produced internally (Lot …); assay: Octet, antibody on AHC sensors, human 5T4 in solution (monovalent); Internal Lot 20-019-62
Method: (§2) Monovalent binding assays were employed to determine the relative affinity of each 5T4 binder obtained by the phage display in Example 1 to human 5T4. Human 5T4 was purchased from Acro Biosystems (Acro Catalog No. TPGH52E) and also produced separately. The monovalent interaction of binders to human 5T4 was monitored using an Octet (Pall ForteBio) instrument. For these assays, 36 nM antibody was immobilized on anti-human Fc (AHC) sensors in 1× kinetic buffer (ForteBio). The sensors were then dipped in wells containing a 3× serial dilution of human 5T4 ranging from 1 μM to 1.37 nM. The association was allowed to reach equilibrium. Sensors were then moved to wells containing only 1× kinetic buffer and allowed to dissociate to equilibrium. Association and dissociation rates were measured and from these, monovalent KDS were calculated using the onboard analysis software (ForteBio).

human 5T4 = target: T3, human 5T4; assay: Octet monovalent binding affinity assay; design: polyhistidine (C); Avi tag (C); purchased Acro Biosystems TPGH52E; conditions: in all three lots of human 5T4
Method: as §2

[6] = Size exclusion chromatography (SEC) developability; type: physicochemical; conditions: 1 mg/mL in Dulbecco's PBS pH 7.4
Method: Antibodies that were selected for binding to 5T4, such as those described in Examples 2 and 3, were tested by various methods to assess developability. For example, various chromatographic methods, including size exclusion chromatography (SEC), hydrophobic interaction chromatography (HIC), and standup monolayer adsorption chromatography (SMAC) were employed to assess factors, such as monomer percentage, solubility, and antibody aggregation or precipitation.
Size exclusion chromatography (SEC) analysis was performed using a 7.8 mm ID×30 cm TSKgel G3000SWXL column (Tosoh Bioscience LLC, PN 08541) with a 6 mm×4 cm guard column (PN 08543) on an Agilent 1100 HPLC. Antibodies were normalized to 1 mg/mL concentration in Dulbecco's PBS (pH 7.4, without Ca^2+/Mg^2+) and clarified via centrifugation to pellet particulates while still retaining soluble aggregates. The mobile phase buffer was Dulbecco's PBS (pH 7.4, without Ca^2+/Mg^2+) at 2× concentration (diluted from 10× stock concentration. For each sample, 10 μL was loaded and isocratically eluted at 1.0 mL/minute over 20 minutes at ambient temperature. Absorbance was monitored at 280 nm. Chromatographic peaks were integrated to determine percentage of homogeneity and retention time. The column stationary phase along with choice of mobile phase supports hydrophobic and electrostatic interactions in addition to molecular sizing (secondary interactions much milder compared to SMAC). Data analysis was performed using Agilent ChemStation B.04.03 SP1.

| Molecule | EC50 [1] [nM] | EC50 [2] [nM] | EC50 [3] [nM] | EC50 [4] [nM] | Kd [5] [nM] | monovalent binding strength (human 5T4) | developability based on SEC analysis [6] |
| --- | --- | --- | --- | --- | --- | --- | --- |
| B1 | 0.159 | 0.186 | 0.19 | 0.157 | 9.34 |  |  |
| B2 | 0.134 | 0.212 | 0.132 | 0.123 | 10.4 |  |  |
| B3 |  |  |  |  |  | strong or moderate binding | strong developability |
| B4 | 0.132 | 0.2 | 0.124 | 0.125 | 83 |  |  |
| B5 |  |  |  |  |  | strong or moderate binding | strong developability |
| B6 |  |  |  |  |  | strong or moderate binding | strong developability |
